± gives the uncertainty stated by the source.

60 sequences from the supplement of paper PMC7877785 can be followed below.

The series can be described thus: self-splicing fitness, log relative to wild type (ln ratio); higher = more splicing; Tetrahymena group I intron in knt gene, E. coli kanamycin selection, DiMSum; sequences stand for … in CUCUCU…GGAGGGAAAAGUUAUCAGGCAUGCACCUGGUAGCUAGUCUUUAAACCAAUAGAUUGCAUCGGUUUAAAAGGCAAGACCGUCAAAUUGCGGGAAAGGGGUCAACAGCCGUUCAGUACCAAGUCUCAGGGGAAACUUUGAGAUGGCCUUGCAAAGGGUAUGGUAAUAAGCUGACGGACAUGGUCCUAACCACGCAGCCAAGUCCUAAGUCAACAGAUCUUCUGUUGAUAUGGAUGCAGUUCACAGACUAAAUGUCGGUCGGGGAAGAUGUAUUCUUCUCAUAAGAUAUAGUCGGACCUCUCCUUAAUGGGAGCUAGCGGAUGAAGUGAUGCAACACUGGAGCCGCUGGGAACUAAUUUGUAUGCGAAAGUAUAUUGAUUAGUUUUGGAGUACUCGUGGUCG
A digest of the protocol:
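Colonies from six replicate transformations of E. coli BL21(DE3) were pooled and amplicon-sequenced on an Illumina HiSeq 2500. The library placed an intron with all eight P1ex-region nucleotides randomised inside the knt kanamycin-resistance gene on pET-22b(+), and cells grew overnight at 37°C or 30°C on LB agar with or without 25 μg/mL kanamycin (plus 100 μg/mL carbenicillin, 50 μM IPTG, 0.2% rhamnose). Fitness is the DiMSum error-weighted combination of wild-type-normalised replicate fold changes, kanamycin versus none.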

With ACAUAGCAAUAUUACGAACG, the “self-splicing fitness (ln)” value was -1.2 ± 0.17 (30 °C) and -0.114 ± 0.28 (37 °C).
In the same order, the values of ACAUAGCAAUAUUACGAAUA are -2.06 ± 0.28 and -0.539 ± 0.2.
On to ACAUAGCAAUAUUACGACCA, for which the “self-splicing fitness (ln)” value is -0.589 ± 0.12 (30 °C) and 0.121 ± 0.14 (37 °C).
In the same order, the values of ACAUAGCAAUAUUACGACGC are -0.172 ± 0.071 and 0.801 ± 0.1.
The matching figures for ACAUAGCAAUAUUACGACUU: 0.0662 ± 0.074 and -0.163 ± 0.087.
Regarding ACAUAGCAAUAUUACGCAAG, the “self-splicing fitness (ln)” value (30 °C) was -1.9 ± 0.12 and the “self-splicing fitness (ln)” value (37 °C) is -1.25 ± 0.2.
As to ACAUAGCAAUAUUACGCCCU, the “self-splicing fitness (ln)” value (30 °C) is -0.862 ± 0.083 and the “self-splicing fitness (ln)” value (37 °C) is -0.134 ± 0.1.
In the same order, the values of ACAUAGCAAUAUUACGCCGA are -1.38 ± 0.19 and -0.864 ± 0.18.
The matching figures for ACAUAGCAAUAUUACGCGGA: -2.07 ± 0.14 and -0.505 ± 0.1.
The matching figures for ACAUAGCAAUAUUACGCUAA: -2.26 ± 0.23 and -0.742 ± 0.34.
ACAUAGCAAUAUUACGCUCU: the “self-splicing fitness (ln)” value is -0.768 ± 0.084 (30 °C) and -0.2 ± 0.12 (37 °C).
On to ACAUAGCAAUAUUACGGCUU, for which the “self-splicing fitness (ln)” value is -0.628 ± 0.09 (30 °C) and 0.133 ± 0.11 (37 °C).
In the same order, the values of ACAUAGCAAUAUUACGGGGU are -3.67 ± 0.17 and -1.81 ± 0.14.
In the same order, the values of ACAUAGCAAUAUUACGGUAA are -2.88 ± 0.15 and -1.52 ± 0.12.
In the same order, the values of ACAUAGCAAUAUUACGGUUG are -2.29 ± 0.079 and -1.95 ± 0.1.
As to ACAUAGCAAUAUUACGUAAG, the “self-splicing fitness (ln)” value (30 °C) is -1.94 ± 0.085 and the “self-splicing fitness (ln)” value (37 °C) was -1.6 ± 0.12.
In the case of ACAUAGCAAUAUUACGUCAA, the “self-splicing fitness (ln)” value reads like this: (30 °C) -3.99 ± 0.21; (37 °C) -1.63 ± 0.11.
In the same order, the values of ACAUAGCAAUAUUACGUCGG are -2.1 ± 0.099 and -1.16 ± 0.1.
Regarding ACAUAGCAAUAUUACGUCUC, the “self-splicing fitness (ln)” value (37 °C) was -2.01 ± 0.25.
Consider ACAUAGCAAUAUUACGUUCC, for which the “self-splicing fitness (ln)” value reads like this: (30 °C) -2.65 ± 0.23; (37 °C) -2.1 ± 0.34.
Consider ACAUAGCAAUAUUACGUUGU, for which the “self-splicing fitness (ln)” value by setting is: (30 °C) -3.63 ± 0.15; (37 °C) -2.78 ± 0.2.
In the same order, the values of ACAUAGCAAUAUUACGUUUC are -3.55 ± 0.23 and -2.84 ± 0.3.
The matching figures for ACAUAGCAAUAUUACGUUUG: -2.83 ± 0.12 and -2.51 ± 0.15.
The matching figures for ACCAAGCAAUAUUACGAAUG: -3.18 ± 0.1 and -1.78 ± 0.1.
As to ACCAAGCAAUAUUACGACAC, the “self-splicing fitness (ln)” value (30 °C) is -1.29 ± 0.093 and the “self-splicing fitness (ln)” value (37 °C) was -1.3 ± 0.13.
The matching figures for ACCAAGCAAUAUUACGAUGA: -1.97 ± 0.1 and -1.36 ± 0.11.
As for ACCAAGCAAUAUUACGCAGG, the “self-splicing fitness (ln)” value was -3.41 ± 0.13 (30 °C) and -2.59 ± 0.13 (37 °C).
In the case of ACCAAGCAAUAUUACGCCCU, the “self-splicing fitness (ln)” value is, setting by setting: (30 °C) -0.139 ± 0.091; (37 °C) 0.663 ± 0.14.
In the same order, the values of ACCAAGCAAUAUUACGCCUC are -2.34 ± 0.22 and -0.371 ± 0.18.
In the same order, the values of ACCAAGCAAUAUUACGCUCA are -0.49 ± 0.098 and -0.055 ± 0.11.
The matching figures for ACCAAGCAAUAUUACGGCCG: -0.944 ± 0.086 and -0.259 ± 0.11.
Turning to ACCAAGCAAUAUUACGGCGA, the “self-splicing fitness (ln)” value runs as follows: (30 °C) -0.805 ± 0.064; (37 °C) -0.254 ± 0.072.
The matching figures for ACCAAGCAAUAUUACGGCGG: -1.04 ± 0.083 and -0.733 ± 0.11.
In the same order, the values of ACCAAGCAAUAUUACGGGAG are -3.22 ± 0.13 and -2.66 ± 0.14.
The matching figures for ACCAAGCAAUAUUACGGGCG: -0.824 ± 0.048 and 0.12 ± 0.068.
On to ACCAAGCAAUAUUACGGGGG, for which the “self-splicing fitness (ln)” value (30 °C) is -2.15 ± 0.096 and the “self-splicing fitness (ln)” value (37 °C) is -2.29 ± 0.14.
As for ACCAAGCAAUAUUACGGUGG, the “self-splicing fitness (ln)” value reads like this: (30 °C) -4.89 ± 0.21; (37 °C) -2.53 ± 0.14.
In the same order, the values of ACCAAGCAAUAUUACGGUUA are -1.63 ± 0.1 and -1.68 ± 0.096.
The matching figures for ACCAAGCAAUAUUACGGUUC: -3.36 ± 0.15 and -3.46 ± 0.25.
In the same order, the values of ACCAAGCAAUAUUACGGUUU are -3.14 ± 0.11 and -2.08 ± 0.1.
On to ACCAAGCAAUAUUACGUAUC, for which the “self-splicing fitness (ln)” value (30 °C) was -3.4 ± 0.1 and the “self-splicing fitness (ln)” value (37 °C) is -2.34 ± 0.11.
With ACCAAGCAAUAUUACGUAUU, the “self-splicing fitness (ln)” value is, setting by setting: (30 °C) -3.77 ± 0.14; (37 °C) -2.07 ± 0.12.
The matching figures for ACCAAGCAAUAUUACGUUAA: -3.17 ± 0.18 and -2.46 ± 0.17.
Consider ACCAAGCAAUAUUACGUUUG, for which the “self-splicing fitness (ln)” value reads like this: (30 °C) -4.33 ± 0.16; (37 °C) -2.43 ± 0.14.
In the same order, the values of ACCCAGCAAUAUUACGAAAA are -1.66 ± 0.097 and -1.83 ± 0.13.
The matching figures for ACCCAGCAAUAUUACGACAU: -0.995 ± 0.011 and -0.241 ± 0.032.
Turning to ACCCAGCAAUAUUACGAGCG, the “self-splicing fitness (ln)” value by setting is: (30 °C) -2.3 ± 0.074; (37 °C) -0.837 ± 0.091.
In the same order, the values of ACCCAGCAAUAUUACGAGUG are -1.74 ± 0.054 and -0.755 ± 0.058.
In the case of ACCCAGCAAUAUUACGAUAG, the “self-splicing fitness (ln)” value (30 °C) was -3.3 ± 0.1 and the “self-splicing fitness (ln)” value (37 °C) is -1.78 ± 0.1.
Consider ACCCAGCAAUAUUACGAUGC, for which the “self-splicing fitness (ln)” value is, setting by setting: (30 °C) -1.31 ± 0.06; (37 °C) 0.13 ± 0.073.
Regarding ACCCAGCAAUAUUACGAUUA, the “self-splicing fitness (ln)” value was -1.61 ± 0.09 (30 °C) and -1.41 ± 0.082 (37 °C).
In the same order, the values of ACCCAGCAAUAUUACGCCAC are -4.62 ± 0.42 and -1.82 ± 0.31.
In the same order, the values of ACCCAGCAAUAUUACGCCCC are -1.3 ± 0.12 and -0.142 ± 0.14.
The matching figures for ACCCAGCAAUAUUACGGGGC: -4.5 ± 0.19 and -2.73 ± 0.14.
As for ACCCAGCAAUAUUACGGGUC, the “self-splicing fitness (ln)” value (30 °C) was -1.89 ± 0.085 and the “self-splicing fitness (ln)” value (37 °C) was -2.74 ± 0.19.
The matching figures for ACCCAGCAAUAUUACGUCAC: -3.29 ± 0.14 and -2.18 ± 0.15.
In the same order, the values of ACCCAGCAAUAUUACGUCCU are -0.73 ± 0.075 and -0.51 ± 0.089.
In the case of ACCCAGCAAUAUUACGUCUU, the “self-splicing fitness (ln)” value is -1.25 ± 0.063 (30 °C) and -0.446 ± 0.075 (37 °C).
In the same order, the values of ACCCAGCAAUAUUACGUGAA are -0.191 ± 0.041 and 0.202 ± 0.063.
Consider ACCCAGCAAUAUUACGUGUG, for which the “self-splicing fitness (ln)” value reads like this: (30 °C) -2.63 ± 0.062; (37 °C) -1.07 ± 0.064.
